# Source: the DeepSol protein solubility set
# Assay: soluble on expression in E. coli; label from the status in PepcDB or PDB records
row,Sequence,soluble on expression in E. coli
1,MGSDKIHHHHHHMSTNPSLPWHAGELALQARVGVAAKMEDVGRRVMRDYMPDQHREFFAQMPFVVLGTVAPDGRVWATLRAGRPGFLQSPDARILELRLPREAADPADAGMEDGQPLGLLGIDLMTRRRNRMNGVLRRADRDGADLRIDVVQSFGNCPRYIQQRAFRFTRDPSEQTTIAPLAMGALDSRARALIASADAFFVASYADRPEAGRQVDVSHRGGEPGFVRIDADGGLTIPDFAGNLFFNTLGNFMVNPAAGVTFADFDTGELLQMSGRVEVIVDSPEIAAFQGAERLWRFFPEKIVRREAALPMRWARAGDAADE,not soluble
2,SATSKLQALWNHPAGPKTIHFWAPTFKWGISIANIADFQKPPENISYLQQIAVTCTGMIWCRCSTIITPKNWNLFSVNVAMAATGIYQLTRKIKYDYVSEAEAAVEIEG,soluble
3,MFPSGHNEKWTRGYQRENSLLHHDDEFRSFQRRTDCPQHFYQQTNGYEHSLFGEKAGFHEASAQNLLMHLASQISPMEFAKLQLELLASQNKQRPHRGAGFGSYLMSPPATVSSSRSTVLCCNPAPPYASHCQSPAASDDFGHHFGSFDSMSAYNFHNNNQQQRREAHVSRDGKSFDQGNIYTAEDVHTVVKNHRNENNQRVVSNKVFVGGISHMMNRKIINKFFGQFGTVFVDWPVKQKPNSRGKSIAIGSYSYLFLVYSDEQSVIKLMSACHRNSQNDFFVSVPGFRDMIQIRPWFIYNGFYILEKARHNRIIDIHRTVFLGGLPRIVTAEEIAQMFSEFGVVLLVTIDIDQDYGYPKGAARVTFERDSAFNRALEKKFLKFDNIDSSKTMIEIKPYVMEDVGCDECGGLWFNPFLSIYDHLKCAKDDHQKEQKMAEIKNFNMWSSRSPFSLNSGDGHDDLITKMDAGFKKNCNLACTYSNRENEKNETEMGARKFLEMVKSFGLEKEKTVTVNGNEYPIGPDLWDKFLPAPKYDVGTEPVRMNPEAKLQQFLRMKRTNVYSNKSAYCKEAPCRQYYCPSCSNKLHSGPNQHTLLPAG,soluble
4,MSIEHHFLCPKKLLKLCNKKIDKDVIRNLQLLTEKFLSDIIHRSALLCKHKGKSTVDNTDIRFVIEKDFDYSFGTREIQGTTSLPTAEHLERMAEISRQNK,not soluble
5,MSLIIRKLFEFENAHIVRFCSSKRCKSSIHGHSYKVEVLLESKYLDNAGMVYDFGLLKTYIRQIIDSFDHAITLFKYDDAKYLEEMKKYSSRWICLPVNVSAENFCRVFFILIDALLKQTKMVNGEQGVTLQSIIVHETRTGYAQGFREDAEGHHHHHH,not soluble
6,MSLKNIRHIYYVSENTGLLAKDSGKSLLCQFPGVEFQEELLPFIRTKDDAQRTINAIREKCGEEKPIIFSTIFDPEINKILQHEDVILLNICEPFLTQLEGMLGKNALRASGHSRNVDQQIMSNRVDAIHYTISHDDGTAIMDYEEADLIIVGVSRSGKTPISVFLATQMGIKTANYPLVEQDLTFCQLPEDIIKNKHKVVGLSISPDVLHTFREQRYKGSHYAQMSTCKRETLQSKRIFEKYDLPVVFSDARSIEETATQVAQELSKQWNPIFEGHHHHHH,soluble
7,ARQENPCGPCSERRKHLFVQDPQTCKCSCKNTDSRCKARQLELNERTCRCDKPRR,soluble
8,MGSDKIHHHHHHMLNYHHLRYFWIVAHEGNLTRAARKHNIAQSALSMQISALEEYLGQPLFERAGRRLVLTEAGHIALDFADAIFAKGDELLGTFGRLAEAHQKVLRVGALATLSRNFQVGFLRPLFADPEITVIVRSGTLDELLGSLKLYDLDIVLATGVPNRDHATPWIVHIIDTQPVGLIGQPRSDRYQQPLEVLLQREPLIVPSPESTIRTGFDALVHRLGIRPRIVAEIDDMAMMRLVAREHNGLAVIPPIVVTDELRSGMLVEYAELPELVETFCAITMPRRFPNPLLRLVLPGHTTPE,not soluble
9,GMTMPIFNISDDVDLVPAMPAEGRDGGSYRRQIWQDDVENGTIVAVWMAEPGIYNYAGRDLEETFVVVEGEALYSQADADPVKIGPGSIVSIAKGVPSRLEILSSFRKLATVIPKP,soluble
10,MSRQEVGYPFHLGRTLKLPQDPPGMAAIYLQSCSGGLFAGETLHLQLHAGPHTQVHVSTGAATVAHSMLEQPARQTVTLIAETGALLEYLPMATILFPQARLHSVVNVTLHPNARVMLCDAFCLHVPPGSAGLPGFYRADLHIRCPAGTLLAGDRLALTGADLQRRLPGVSAELQALATFMLVGQDLPVDELKRALRDALRVVPESYLGVSALPNDCGVSVRIMTADAVALRSALHLAWACARQQLTGIAPRVRRKLEHHHHHH,not soluble
11,MGSDKIHHHHHHMELRDLQIFKCVAHHKSITGAAKELNYVQSNVTARIKQLENELKTPLFNRHKKGVSLSPEGRKMIEYVNKILKDVEELEQVFLDTEIPSGILKIGTVETVRILPTIIASYYKKYPNVDLSLQAGLTEELIKKVMNHELDGAFISGPLKHSILEQYDVYTEKLTLVTSNKTFNIEDFSTTPILVFNQGCGYRSRLEQWLKDEGVLPNRMMEFNILETILNSVALGLGITVVPESAVMHLAVQGKVYCHPLPEKDSCISTIFIRHKDAYLTNSMRSLLKTIVEHKNMSMA,not soluble
12,MHPASGVMVTVETPETDTVFNRCRPAADGDIVVPHGSTAVLGTTSVDVDDADEFATPDAAVERVIDECSALLPAASDAPIRTTYWGVRPLYSPSDYGDDARAISRGFYVLDHADRDDTAGLTTVVGGKLTTHRLMAEATADLVADRLGVTEPSRTANEPLPGHDDPERLDALVDTFDAASPADADARLEHHHHHH,not soluble
13,MHTIELRNISKVIKNNIVLSNINYKFESGKVYGLKGRNGSGKSMLLRTISGLIRPTSGSVIIDGKELHKEIESPGNIGIVVENAGLYPDFTGFYNLKYLAGIMGQISDDEIINAIKRVGLDLYDKKIVKKYSLGMKQKIVIAQAIMEKPDFLLLDEPTNALDESGVKLLREIVQEEATRGALVIIASHNQEDIELLCDKVIIMADGKISDEYVNSREMNLCSEETQ,not soluble
14,MGSDKIHHHHHHMKADLHVHTCLSPCADLLMIPPVVERASGDVQILGIVDHNSAKNVPAFLKMKKLVVPGIEIQTVEDVHVLGFFSDIESALKVTKIVYEHLPSVKHDHEKMGYQLFVDEKGNYTGYEDVPLGFPSDLTLSQAVELIRSFGGIPVYAHVEKRFGVLYQLGFFPDLEIPVAEVVSREGKENAQKKNLRVIVTSDAHFPSDIGRRYIDISGAPNSPEEVLKKILNSEYTLGGVLNW,not soluble
15,MERNELFDLQTLSTRRKIIDRIQVTRMNTGKVDLKTSEFFEQQETQTRSKKKYIWSTGKSKLRRHFFVNRTLPTMKQH,not soluble
16,MAHHHHHHMAVENMLGKLKQNPGDYYNSVSALFFHRPYNMMPIQAMSFLYVRGLARATSAEHKKYFEELCSKAKVEPAAVQTELDVIPDYFGMIESGQEPKDVFGATNKVAKAVRADKDFSSLLSRKMSLGSSAMANFGNLYTASLPCWIAAGLEEAYNKKQDITNHPMVMVGYGSGDASEAIPIVPVKGWEEAASKINVAAALEKPVNLTREQYEGMHNGSLKSDLAAGNRQKEFVVAHIGSRNDMAFQDIGIEYYQFVH,not soluble
17,MGSDKIHHHHHHMISMDEFIEFVRGGPLGPIKKWGTKWSLWPVHLVTACCGAELAHAFACGYDGERIGALNYGIARQTNLIIVEGAITRKMAKVLRITWEQMPDPKFVIVMGACGLQGGIFWNGYHMVKPSDVVPVDFFIPGCPPTPEALLRGIRQLQFKIETGEAKTSATFPEVPLEAGRKPRVLPKSPKKISKAPAVIVNAPKEVDWEFGQKLVEEIKAKVEAKSVTITGKNRIAVKVESDYIPRAAMRLREMGFDHVKNVNVIDVPNEDKFIVEYHFSSYSVKELMPVIVNVFADIPRENPRVKSLASMFPSADYMEREMHDFFGVIFEGNPWMGRKFLLAPDAPEFPLRKDFKLEEEVYVR,not soluble
18,MAHHHHHHMSCRRFHKVLQANEEENEHAREAFLASWRSEYQQFLQSKLAALVWHVEHHCRSHVTPQTATSMACGEVPRMKVATTAPNSTTTASTNSNSAMMAEDAEQHDACNVLAHKQNRRTTLPSHFFLEQTPTSMPFYPREFIVEKEAQMFRQTNSPFTVGETPHGSQHSRTEINASTATVVPLPSVHKKETADRNSEKDDDRTAILAVSPSPRQISMHSPSQIEDDGSLDASLSPAATVAVTNVLTRTPGPAVQLQKMLPTEEVSKANLRKTIARLYSESVDTRSSWSDTWSQKKQRAASLLPPPSSASHMMHLKTMHVSHGTPCENMEASRNDMLSKKQLICELRRLYGLEDER,soluble
